First the molecules themselves.
B1: FIXa-Y155F/R338E/T343R/R403E (enzyme)
chain 1: YNSGKLEEFVQGNLERECMEEKCSFEEAREVFENTERTTEFWKQYVDGDQCESNPCLNGGSCKDDINSYECWCPFGFEGKNCELDVTCNIKNGRCEQFCKNSADNKVVCSCTEGYRLAENQKSCEPAVPFPCGRVSVSQTSKLTR
chain 2: VVGGEDAKPGQFPWQVVLNGKVDAFCGGSIVNEKWIVTAAHCVETGVKITVVAGEHNIEETEHTEQKRNVIRIIPHHNYNAAINKYNHDIALLELDEPLVLNSYVTPICIADKEYTNIFLKFGSGYVSGWGRVFHKGRSALVLQYLRVPLVDRATCLESTKFRIYNNMFCAGFHEGGRDSCQGDSGGPHVTEVEGTSFLTGIISWGEECAMKGKYGIYTKVSEYVNWIKEKTKLT
B2: FIXa-Y155F/R338E/T343R/R403E/E410N (enzyme)
chain 1: YNSGKLEEFVQGNLERECMEEKCSFEEAREVFENTERTTEFWKQYVDGDQCESNPCLNGGSCKDDINSYECWCPFGFEGKNCELDVTCNIKNGRCEQFCKNSADNKVVCSCTEGYRLAENQKSCEPAVPFPCGRVSVSQTSKLTR
chain 2: VVGGEDAKPGQFPWQVVLNGKVDAFCGGSIVNEKWIVTAAHCVETGVKITVVAGEHNIEETEHTEQKRNVIRIIPHHNYNAAINKYNHDIALLELDEPLVLNSYVTPICIADKEYTNIFLKFGSGYVSGWGRVFHKGRSALVLQYLRVPLVDRATCLESTKFRIYNNMFCAGFHEGGRDSCQGDSGGPHVTEVEGTSFLTGIISWGEECAMKGKYGIYTKVSEYVNWIKNKTKLT
B3: FIXa-Y155F/K228N/K247N/N249S/R318Y/R338E/T343R/R403E/E410N (enzyme)
chain 1: YNSGKLEEFVQGNLERECMEEKCSFEEAREVFENTERTTEFWKQYVDGDQCESNPCLNGGSCKDDINSYECWCPFGFEGKNCELDVTCNIKNGRCEQFCKNSADNKVVCSCTEGYRLAENQKSCEPAVPFPCGRVSVSQTSKLTR
chain 2: VVGGEDAKPGQFPWQVVLNGKVDAFCGGSIVNEKWIVTAAHCVETGVNITVVAGEHNIEETEHTEQNRSVIRIIPHHNYNAAINKYNHDIALLELDEPLVLNSYVTPICIADKEYTNIFLKFGSGYVSGWGRVFHKGYSALVLQYLRVPLVDRATCLESTKFRIYNNMFCAGFHEGGRDSCQGDSGGPHVTEVEGTSFLTGIISWGEECAMKGKYGIYTKVSEYVNWIKNKTKLT
B4: FIXa-Y155F/R338E/T343R/E410N (enzyme)
chain 1: YNSGKLEEFVQGNLERECMEEKCSFEEAREVFENTERTTEFWKQYVDGDQCESNPCLNGGSCKDDINSYECWCPFGFEGKNCELDVTCNIKNGRCEQFCKNSADNKVVCSCTEGYRLAENQKSCEPAVPFPCGRVSVSQTSKLTR
chain 2: VVGGEDAKPGQFPWQVVLNGKVDAFCGGSIVNEKWIVTAAHCVETGVKITVVAGEHNIEETEHTEQKRNVIRIIPHHNYNAAINKYNHDIALLELDEPLVLNSYVTPICIADKEYTNIFLKFGSGYVSGWGRVFHKGRSALVLQYLRVPLVDRATCLESTKFRIYNNMFCAGFHEGGRDSCQGDSGGPHVTEVEGTSFLTGIISWGEECAMKGKYGIYTKVSRYVNWIKNKTKLT
B5: FIXa-R338E/T343R/R403E/E410N (enzyme)
chain 1: YNSGKLEEFVQGNLERECMEEKCSFEEAREVFENTERTTEFWKQYVDGDQCESNPCLNGGSCKDDINSYECWCPFGFEGKNCELDVTCNIKNGRCEQFCKNSADNKVVCSCTEGYRLAENQKSCEPAVPFPCGRVSVSQTSKLTR
chain 2: VVGGEDAKPGQFPWQVVLNGKVDAFCGGSIVNEKWIVTAAHCVETGVKITVVAGEHNIEETEHTEQKRNVIRIIPHHNYNAAINKYNHDIALLELDEPLVLNSYVTPICIADKEYTNIFLKFGSGYVSGWGRVFHKGRSALVLQYLRVPLVDRATCLESTKFRIYNNMFCAGFHEGGRDSCQGDSGGPHVTEVEGTSFLTGIISWGEECAMKGKYGIYTKVSEYVNWIKNKTKLT
notes: also called R170E/T175R/R233E/E240N (chymotrypsin numbering)

The test deals with T1, Factor VIIIa (recombinant FVIII, Kogenate FS, activated with alpha-thrombin) (UniProt P00451 20-2351).
T1 construct: also called FVIIIa
T1 sequence (looked up): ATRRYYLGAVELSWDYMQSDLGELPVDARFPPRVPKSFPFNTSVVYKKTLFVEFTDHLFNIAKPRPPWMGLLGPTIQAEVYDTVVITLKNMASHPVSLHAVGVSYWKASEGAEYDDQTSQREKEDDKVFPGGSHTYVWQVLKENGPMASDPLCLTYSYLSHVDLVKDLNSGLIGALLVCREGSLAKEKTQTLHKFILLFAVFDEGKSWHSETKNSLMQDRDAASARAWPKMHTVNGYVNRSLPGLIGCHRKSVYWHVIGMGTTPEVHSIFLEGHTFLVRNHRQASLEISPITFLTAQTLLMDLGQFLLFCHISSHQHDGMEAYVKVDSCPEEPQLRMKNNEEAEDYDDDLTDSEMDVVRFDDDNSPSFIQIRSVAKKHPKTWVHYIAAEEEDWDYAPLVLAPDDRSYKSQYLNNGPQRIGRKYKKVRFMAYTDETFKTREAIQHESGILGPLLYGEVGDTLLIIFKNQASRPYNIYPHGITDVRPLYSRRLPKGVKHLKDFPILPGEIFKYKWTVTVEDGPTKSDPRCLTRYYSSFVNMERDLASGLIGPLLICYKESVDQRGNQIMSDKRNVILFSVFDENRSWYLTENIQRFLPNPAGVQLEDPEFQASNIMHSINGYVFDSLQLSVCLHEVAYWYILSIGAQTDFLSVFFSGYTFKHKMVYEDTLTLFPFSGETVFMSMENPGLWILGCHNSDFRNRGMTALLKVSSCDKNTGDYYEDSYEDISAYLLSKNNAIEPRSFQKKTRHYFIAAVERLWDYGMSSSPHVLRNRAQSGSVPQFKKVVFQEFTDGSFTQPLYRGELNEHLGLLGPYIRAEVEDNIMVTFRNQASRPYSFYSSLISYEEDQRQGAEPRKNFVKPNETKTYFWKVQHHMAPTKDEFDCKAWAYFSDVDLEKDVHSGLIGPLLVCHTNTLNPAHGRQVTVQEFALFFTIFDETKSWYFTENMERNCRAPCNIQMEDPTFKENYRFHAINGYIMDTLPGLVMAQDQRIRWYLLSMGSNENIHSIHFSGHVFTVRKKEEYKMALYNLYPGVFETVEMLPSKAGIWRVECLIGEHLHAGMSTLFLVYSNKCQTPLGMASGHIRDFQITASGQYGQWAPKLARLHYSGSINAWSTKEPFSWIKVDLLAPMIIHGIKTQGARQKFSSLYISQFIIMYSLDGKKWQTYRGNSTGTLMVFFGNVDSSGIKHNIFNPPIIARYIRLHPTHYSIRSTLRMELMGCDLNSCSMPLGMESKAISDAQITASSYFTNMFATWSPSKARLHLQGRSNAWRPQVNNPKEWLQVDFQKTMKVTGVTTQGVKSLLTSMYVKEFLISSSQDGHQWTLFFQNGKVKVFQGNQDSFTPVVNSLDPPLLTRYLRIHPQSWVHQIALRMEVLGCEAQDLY
Briefly: functional cofactor affinity KD-app: fluorogenic FX activation (Xase) assay, FVIIIa titrated, PC/PS vesicles, saturating FX.
On to B1, for which the Kd was 72.1 nM.
Regarding B2, the Kd worked out at 28.5 nM.
On to B3, for which the Kd was 37 nM.
For B4, the Kd was 8.5 nM.
Turning to B5, the Kd came out at 29.4 nM.

For the origin of these results see patent publication US20210238260A1 (published 2021).
